Laboratory results: patent US20230272064A1 (ACROIMMUNE BIOTECH, published 2023)
Several values for one entry are separate records, joined by “and”; a condition that tells them apart may be missing. Equal entries are not always repeated. Blank lines part the entries; values can stand above or below the binder they belong to.

Experiments:
[1] = target: T1, recombinant human TIGIT extracellular membrane protein with a C-terminal histidine tag (human, UniProt Q495A1 22-141); assay: competitive ELISA, TIGIT-His coated, competitor biotin-CD155-Fc
T1 construct: extracellular domain; Bought protein; two different product numbers are printed for it; also called TIGIT-His; TIGIT-his
T1 sequence (looked up): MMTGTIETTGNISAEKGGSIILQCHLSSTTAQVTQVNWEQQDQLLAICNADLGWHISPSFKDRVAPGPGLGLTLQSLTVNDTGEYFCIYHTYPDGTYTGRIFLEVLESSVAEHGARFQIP

[2] = target: T2, BTLA Fc fusion protein (Homo sapiens (Human), UniProt Q7Z6A9 31-157); assay: ELISA, antigen coated at 2 µg/mL
T2 sequence: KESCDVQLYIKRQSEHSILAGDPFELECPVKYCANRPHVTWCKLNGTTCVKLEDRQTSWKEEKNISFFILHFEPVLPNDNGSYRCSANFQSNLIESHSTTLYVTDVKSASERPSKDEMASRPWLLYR

[3] = target: T3, CD28 Fc fusion protein (Homo sapiens (Human), UniProt P10747 19-152); assay: ELISA, antigen coated at 2 µg/mL
[4] = target: T4, PD-1 Fc fusion protein (Homo sapiens (Human), UniProt Q15116 25-170); assay: ELISA, antigen coated at 2 µg/mL
[5] = target: T5, B7-1 Fc fusion protein (Homo sapiens (Human), UniProt P33681 35-242); assay: ELISA, antigen coated at 2 µg/mL
T5 sequence: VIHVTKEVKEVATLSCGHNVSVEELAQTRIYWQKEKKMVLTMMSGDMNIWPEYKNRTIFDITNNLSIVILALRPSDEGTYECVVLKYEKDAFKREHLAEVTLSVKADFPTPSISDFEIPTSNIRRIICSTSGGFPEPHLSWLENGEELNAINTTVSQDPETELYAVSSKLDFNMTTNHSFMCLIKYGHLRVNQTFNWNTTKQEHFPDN

[6] = target: T1, recombinant human TIGIT extracellular …; assay: competitive ELISA, TIGIT-His coated, competitor biotin-CD155-Fc; average of samples #2 and #4
[7] = target: T6, mouse TIGIT on C57/B6 wild-type mouse lymphocytes (mouse, UniProt P86176 29-249); assay: flow cytometry on peripheral blood lymphocytes of a wild-type C57 mouse, 33D2 hybridoma supernatant, FITC rabbit anti-mouse IgG, PE anti-mouse CD3e
T6 construct: whole, on cells
T6 sequence (looked up): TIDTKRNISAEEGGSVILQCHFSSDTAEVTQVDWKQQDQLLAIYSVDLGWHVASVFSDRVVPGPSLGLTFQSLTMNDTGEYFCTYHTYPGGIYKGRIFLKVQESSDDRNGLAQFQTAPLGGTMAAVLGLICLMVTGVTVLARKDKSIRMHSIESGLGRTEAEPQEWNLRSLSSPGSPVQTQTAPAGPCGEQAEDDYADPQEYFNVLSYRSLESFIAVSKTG

[8] = target: T2, BTLA Fc fusion protein; assay: ELISA, antigen coated at 2 µg/mL, mAb at 1 µg/mL
[9] = target: PD-L1 Fc fusion protein; assay: ELISA, antigen coated at 2 µg/mL, mAb at 1 µg/mL
[10] = target: CTLA4 Fc fusion protein; assay: ELISA, antigen coated at 2 µg/mL, mAb at 1 µg/mL
[11] = target: PV1- (coated antigen of Table 2); assay: ELISA, antigen coated at 2 µg/mL, mAb at 1 µg/mL
[12] = target: T3, CD28 Fc fusion protein; assay: ELISA, antigen coated at 2 µg/mL, mAb at 1 µg/mL
[13] = target: T7, PD-L2 Fc fusion protein; assay: ELISA, antigen coated at 2 µg/mL, mAb at 1 µg/mL
T7 sequence (Q9BQ51 whole entry, species assumed, looked up): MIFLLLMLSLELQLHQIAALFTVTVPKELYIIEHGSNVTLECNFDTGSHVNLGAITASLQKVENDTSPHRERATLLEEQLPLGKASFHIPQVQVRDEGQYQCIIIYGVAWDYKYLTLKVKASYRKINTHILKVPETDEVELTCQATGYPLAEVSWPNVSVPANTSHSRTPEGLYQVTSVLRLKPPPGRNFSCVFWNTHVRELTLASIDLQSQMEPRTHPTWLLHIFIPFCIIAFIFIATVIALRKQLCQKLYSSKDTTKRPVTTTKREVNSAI

[14] = target: CD3 Fc fusion protein; assay: ELISA, antigen coated at 2 µg/mL, mAb at 1 µg/mL
[15] = target: T4, PD-1 Fc fusion protein; assay: ELISA, antigen coated at 2 µg/mL, mAb at 1 µg/mL
[16] = target: Sirpa Fc fusion protein; assay: ELISA, antigen coated at 2 µg/mL, mAb at 1 µg/mL
[17] = target: T1, recombinant human TIGIT extracellular …; assay: ELISA, antigen coated at 2 µg/mL, mAb at 1 µg/mL
[18] = target: PD1H (PD2) Fc fusion protein; assay: ELISA, antigen coated at 2 µg/mL, mAb at 1 µg/mL
[19] = target: T5, B7-1 Fc fusion protein; assay: ELISA, antigen coated at 2 µg/mL, mAb at 1 µg/mL
[20] = target: T1, recombinant human TIGIT extracellular …; assay: BLI (Fortebio-OCTET RED96), mAb captured on FAB2G sensor, TIGIT-His monomer as analyte, global fit, monovalent binding

T3 sequence (P10747 19-152 limits assumed): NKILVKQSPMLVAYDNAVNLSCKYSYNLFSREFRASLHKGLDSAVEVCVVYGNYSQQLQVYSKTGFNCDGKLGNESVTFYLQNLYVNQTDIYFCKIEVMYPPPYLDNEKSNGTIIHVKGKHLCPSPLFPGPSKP
T4 sequence (Q15116 25-170 limits assumed): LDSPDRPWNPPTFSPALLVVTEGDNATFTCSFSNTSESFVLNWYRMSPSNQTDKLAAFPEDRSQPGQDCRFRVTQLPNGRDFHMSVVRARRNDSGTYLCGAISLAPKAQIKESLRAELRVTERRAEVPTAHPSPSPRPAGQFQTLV
Sequence of Sirpa Fc fusion protein (P78324 whole entry, the tested form may be a part): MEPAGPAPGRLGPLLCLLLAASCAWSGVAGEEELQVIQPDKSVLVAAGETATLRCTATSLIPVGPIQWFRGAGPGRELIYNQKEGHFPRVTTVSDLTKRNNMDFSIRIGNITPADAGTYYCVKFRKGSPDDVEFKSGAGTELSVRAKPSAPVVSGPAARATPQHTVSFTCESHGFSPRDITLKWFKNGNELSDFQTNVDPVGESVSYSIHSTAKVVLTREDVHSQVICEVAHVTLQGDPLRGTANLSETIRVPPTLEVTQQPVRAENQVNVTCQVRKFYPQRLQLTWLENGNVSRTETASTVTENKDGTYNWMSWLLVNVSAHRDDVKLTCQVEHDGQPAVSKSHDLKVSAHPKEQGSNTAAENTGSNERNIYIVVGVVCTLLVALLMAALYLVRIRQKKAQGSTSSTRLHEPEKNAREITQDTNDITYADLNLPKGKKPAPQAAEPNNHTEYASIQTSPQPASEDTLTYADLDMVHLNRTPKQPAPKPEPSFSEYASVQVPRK
Sequence of PD-L1 Fc fusion protein (Q9NZQ7 whole entry, the tested form may be a part): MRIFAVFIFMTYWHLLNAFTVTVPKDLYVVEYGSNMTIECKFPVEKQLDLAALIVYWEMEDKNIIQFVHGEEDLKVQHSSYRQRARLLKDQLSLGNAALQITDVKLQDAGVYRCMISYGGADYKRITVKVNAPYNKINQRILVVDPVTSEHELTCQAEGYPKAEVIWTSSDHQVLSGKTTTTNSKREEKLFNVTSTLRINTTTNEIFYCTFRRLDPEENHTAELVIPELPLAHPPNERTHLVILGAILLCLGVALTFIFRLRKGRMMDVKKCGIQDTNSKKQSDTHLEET
Sequence of CTLA4 Fc fusion protein (P16410 36-161): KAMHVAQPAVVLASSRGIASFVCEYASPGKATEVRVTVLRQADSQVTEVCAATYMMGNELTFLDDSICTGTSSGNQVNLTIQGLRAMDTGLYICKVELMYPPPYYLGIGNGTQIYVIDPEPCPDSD

- binding result [2]: no binding (tested: 1 µg/mL)
- binding result [3]: no binding (tested: 1 µg/mL)
- binding result [4]: no binding (tested: 1 µg/mL)
- binding result [5]: no binding (tested: 1 µg/mL)
- IC50 [6]: 0.13 µg/mL and 0.867 nM
- binding result [7]: no binding
- OD at 495 nm [8]: 0.01 OD
- OD at 495 nm [9]: 0 OD
- OD at 495 nm [10]: 0.02 OD
- OD at 495 nm [11]: 0.05 OD
- OD at 495 nm [12]: 0.03 OD
- OD at 495 nm [13]: 0.04 OD
- OD at 495 nm [14]: 0.01 OD
- OD at 495 nm [15]: 0.01 OD
- OD at 495 nm [16]: 0.01 OD
- OD at 495 nm [17]: 1.01 OD
- OD at 495 nm [18]: 0.01 OD
- OD at 495 nm [19]: 0.03 OD
B1: murine anti-human TIGIT monoclonal antibody 33D2 (antibody, V domains shown)
VH: EVQLQQSGPDLVKPGASVKISCKASGYSFTGYYMHWVKQSHGKSLEWIGRVNPNNGDTRYNQKFKGKAILTVDKSSSTAYMELRSLTSEDSAVYYCAREGDYDERFAYWGQGTLVTVSA
VL: DIVMTQSHKFMSTSLGDRVSITCKASQDVGSTVAWYQQKPGQSPKLLIYWASTRHTGVPDRFTGSGSGTDFTLTITNVQSEDLADYFCQQYTSFPYTFGGGTKLEIK
notes: Mouse hybridoma antibody, used as purified protein (Protein G) or as hybridoma supernatant; also called m33D2; 33D2 mAb
- IC50 [1]: 0.135 µg/mL and 0.9 nM and 0.125 µg/mL and 0.833 nM

- Kd [20]: 0.843 nM
- koff [20]: 0.00023 s⁻¹
- kon [20]: 273000 M⁻¹ s⁻¹
B2: humanized antibody h33D2 (antibody, V domains shown)
VH: QVQLVQSGAEVKKPGASVKVSCKASGYSFTGYYMHWVRQAPGQGLEWMGRVNPNNGDTRYNQKFKGRVTMTRDTSISTAYMELSRLRSDDTVVYYCAREGDYDERFAYWGQGTLVTVSA
VL: DIQLTQSPSFLSASVGDRVTITCKASQDVGSTVAWYQQKPGKAPKLLIYWASTRHTGVPSRFSGSGSGTEFTLTISSLQPEDFATYYCQQYTSFPYTFGGGTKLEIK
notes: IgG4-kappa; human IgG4 heavy chain constant region with S228P in the hinge and human kappa light chain constant region; also called humanized 33D2 mAb; h33D2-light chain and h33D2-heave chain
